The data set addresses Pab1 monomer (poly(A)-binding protein) (Saccharomyces cerevisiae, UniProt P04147 1-577). Description: fluorescence anisotropy; monomer calibration, titration regime; Kd cannot be determined; 1x disaggregation buffer (composition not in the material), 30 C, 15 uL samples, fluorescein ex/em 485/535 nm; 0.2 uM A19 RNA used for gain setting. The settings on record: protein: recombinant; tags: 8xHis-TEV site tag, removed by TEV protease; label: 5' 6-FAM; single strand.

This note sets out measurements from PMC9121323, “Using fluorescence anisotropy to monitor chaperone dispersal of RNA-binding protein condensates”.

Pab1 monomer (poly(A)-binding protein), sequence (P04147 whole entry): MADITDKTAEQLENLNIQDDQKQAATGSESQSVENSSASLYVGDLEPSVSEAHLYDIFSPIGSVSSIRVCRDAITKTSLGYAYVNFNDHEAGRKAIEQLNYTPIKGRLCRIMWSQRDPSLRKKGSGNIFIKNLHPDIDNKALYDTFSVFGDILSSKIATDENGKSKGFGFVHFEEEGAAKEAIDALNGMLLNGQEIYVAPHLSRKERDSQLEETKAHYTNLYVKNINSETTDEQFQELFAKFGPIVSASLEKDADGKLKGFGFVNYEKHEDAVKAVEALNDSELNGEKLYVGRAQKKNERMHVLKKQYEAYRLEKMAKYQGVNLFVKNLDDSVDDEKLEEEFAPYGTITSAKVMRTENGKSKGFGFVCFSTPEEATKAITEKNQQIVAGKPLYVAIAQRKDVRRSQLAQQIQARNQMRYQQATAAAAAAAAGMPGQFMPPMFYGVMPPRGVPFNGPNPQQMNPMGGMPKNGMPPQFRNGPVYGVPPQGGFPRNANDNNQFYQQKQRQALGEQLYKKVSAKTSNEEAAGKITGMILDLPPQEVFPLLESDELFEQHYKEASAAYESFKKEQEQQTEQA

For the molecule AAAAAAAAAAAAAAAAAAA (ssRNA) [Fluorescein-A19 RNA], the binding result is “binds”.
